Like-named read-outs stand apart in the source and are kept apart here.
Assays:
[1] = human, plasma, 2 h
Method: (§1) To a portion of compound (50 μl, 10 MBq/ml) was added an equal volume of plasma (rat or human) or saline. The mixtures were incubated at 37° C. and the stability measured by HPLC (system C) at 0, 30 and 120 minutes. The saline dilution acted as a control.

[2] = molecular target: T1, fibrin (in vitro human plasma clot) (Homo sapiens, UniProt P02671+P02675+P02679); assay: Incorporation into human plasma clots in vitro; format: biochemical; conditions: for % specific uptake: % retained (with thrombin) - % retained (no thrombin); for % retained (no thrombin): control without thrombin and calcium chloride (non-specific binding); for % retained (with thrombin): human plasma clot, 60 minutes, ca. 20° C.
T1 construct: about 400 μl of human plasma containing the radiolabelled substrate; from tissue; host or cells: human plasma, clotted in vitro with added thrombin and calcium chloride
T1 sequence (P02671 20-644 isoform P02671-2 limits assumed): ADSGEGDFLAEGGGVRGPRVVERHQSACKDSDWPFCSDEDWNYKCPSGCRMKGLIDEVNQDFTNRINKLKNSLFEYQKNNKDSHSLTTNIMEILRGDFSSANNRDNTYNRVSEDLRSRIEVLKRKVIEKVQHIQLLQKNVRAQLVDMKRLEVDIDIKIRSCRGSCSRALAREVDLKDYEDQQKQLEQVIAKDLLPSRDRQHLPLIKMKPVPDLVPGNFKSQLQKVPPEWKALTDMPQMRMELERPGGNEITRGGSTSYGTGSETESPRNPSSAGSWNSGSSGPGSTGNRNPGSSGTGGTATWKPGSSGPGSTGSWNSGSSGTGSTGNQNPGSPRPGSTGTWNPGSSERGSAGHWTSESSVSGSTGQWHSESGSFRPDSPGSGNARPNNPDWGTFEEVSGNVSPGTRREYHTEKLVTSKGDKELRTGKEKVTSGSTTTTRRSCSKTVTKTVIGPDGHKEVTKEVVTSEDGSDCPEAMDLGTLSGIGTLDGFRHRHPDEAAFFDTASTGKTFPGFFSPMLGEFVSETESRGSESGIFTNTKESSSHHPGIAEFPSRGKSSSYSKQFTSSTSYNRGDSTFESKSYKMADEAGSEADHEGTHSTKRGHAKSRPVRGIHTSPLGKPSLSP
T1 sequence (P02675 45-491 limits assumed): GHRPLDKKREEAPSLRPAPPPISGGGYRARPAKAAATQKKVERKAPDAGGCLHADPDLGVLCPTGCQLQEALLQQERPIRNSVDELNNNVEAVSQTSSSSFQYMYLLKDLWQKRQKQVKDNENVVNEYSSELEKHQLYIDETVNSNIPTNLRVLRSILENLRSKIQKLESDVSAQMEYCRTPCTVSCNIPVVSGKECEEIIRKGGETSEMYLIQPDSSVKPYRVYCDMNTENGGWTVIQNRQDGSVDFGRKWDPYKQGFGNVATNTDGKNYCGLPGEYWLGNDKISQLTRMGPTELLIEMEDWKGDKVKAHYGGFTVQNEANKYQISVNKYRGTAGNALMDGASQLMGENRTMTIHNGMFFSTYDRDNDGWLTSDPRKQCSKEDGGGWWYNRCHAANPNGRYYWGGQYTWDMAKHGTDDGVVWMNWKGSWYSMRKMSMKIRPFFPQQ
T1 sequence (P02679 27-437 isoform P02679-2 limits assumed): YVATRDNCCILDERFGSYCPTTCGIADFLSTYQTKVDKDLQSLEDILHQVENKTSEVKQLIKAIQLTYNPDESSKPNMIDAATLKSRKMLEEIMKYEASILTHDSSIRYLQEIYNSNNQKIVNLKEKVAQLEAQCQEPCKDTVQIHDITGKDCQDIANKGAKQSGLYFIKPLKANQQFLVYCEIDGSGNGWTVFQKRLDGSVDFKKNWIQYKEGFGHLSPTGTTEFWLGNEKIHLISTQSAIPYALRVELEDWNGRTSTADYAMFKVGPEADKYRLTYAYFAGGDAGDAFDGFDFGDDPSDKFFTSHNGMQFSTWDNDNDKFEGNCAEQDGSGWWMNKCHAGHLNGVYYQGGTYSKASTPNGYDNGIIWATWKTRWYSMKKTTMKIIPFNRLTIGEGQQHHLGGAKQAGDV
In short: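 Human plasma containing radiolabelled substrate (typically 10 kBq/ml) clotted with thrombin in Tris-saline pH 7.5 with 4 mM CaCl2, 60 min at ca. 20 °C, then stopped with cold EDTA. Clots collected on nitrocellulose filters and washed; incorporation is filter-retained radioactivity fraction minus non-specific binding from thrombin/calcium-free controls.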

[3] = rat, plasma, 2 h
Method: as §1

[4] = Incorporation into clots induced in a rat model (rat inferior vena cava model); format: in vivo, rat (Male Wistar); conditions: for % id/g (clot) / Rel. Conc. (cpm/g of clot by dose/g animal): sacrificed after 60 min
In short: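 Male Wistar rats (250–350 g) under 15% urethane anaesthesia, with the vena cava isolated by laparotomy. Compounds given 5 min (fresh clot) or 60 min (aged clot) after clot induction; clot, blood, lung and heart removed 60 min later, weighed and counted. Uptake expressed as cpm/g clot per dose/g animal and as clot-to-background tissue ratio.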

[5] = parameters: species or system rat (Male Wistar); conditions: rat, in vivo; for % ID Blood / % ID GI Tract / % ID Heart / % ID Kidney / % ID Liver / % ID Lung / % ID Muscle / % ID Urine: iv
Method: The resolution of a clot image is dependant on the combination of rate of incorporation of the radiopharmaceutical and its blood/tissues clearance rate. For this reason the biodistribution of several compounds has been determined in rats. Male Wistar (100–150 g) rats were injected i.v. with 0.1–0.2 ml of radiolabelled tracer solution (8 MBq/ml) and dissected at different times post-injection. The % ID in each of the selected tissues was measured. Some animals were kept in metabolism cages to be able to determine the % ID excreted in urine and faeces. The dissection times used for the agent were 15, 30, 60, 240 min. Data are shown as mean of % ID (n=3).

[6] = Aged Clots: injected 60 min post-induction
[7] = Fresh Clots: injected 5 min post-induction

## Ac-NQEQVSPYTLLKG-Pn44 (also: 99mTc complex) [^99mTc-Cmpd 3]
[1]
  % intact at 120 mins: >90%
[2]
  % specific uptake: 39.0%
  % retained (no thrombin): 0.3%
  % retained (with thrombin): 39.3%
[3]
  % intact at 120 mins: >90%
[4]; Aged Clots
  Clot/blood: 8
  Clot/heart: 23
  Clot/liver: 5
  Clot/lung: 11
[4]; [6]
  % id/g (clot): 2.1 ± 0.8 % id/g
  Rel. Conc. (cpm/g of clot by dose/g animal): 6.2 ± 2.2
[4]; Fresh Clots
  Clot/blood: 10
  Clot/heart: 17
  Clot/liver: 6
  Clot/lung: 8
[4]; [7]
  % id/g (clot): 1.4 ± 0.4 % id/g
  Rel. Conc. (cpm/g of clot by dose/g animal): 5.1 ± 1.2
[5]
  t1/2 (blood clearance, biological half life): 2 h
[5]; 0.25 h
  % ID Blood: 5.3 % ID
  % ID GI Tract: 13.5 % ID
  % ID Heart: 0.2 % ID
  % ID Kidney: 7.6 % ID
  % ID Liver: 6.2 % ID
  % ID Lung: 0.7 % ID
  % ID Muscle: 14.7 % ID
  % ID Urine: 14.9 % ID
[5]; 0.5 h
  % ID Blood: 1.8 % ID
  % ID GI Tract: 15.1 % ID
  % ID Heart: 0.1 % ID
  % ID Kidney: 4.9 % ID
  % ID Liver: 4.1 % ID
  % ID Lung: 0.4 % ID
  % ID Muscle: 10.4 % ID
  % ID Urine: 34.3 % ID
[5]; 1 h
  % ID Blood: 1.6 % ID
  % ID GI Tract: 18.0 % ID
  % ID Heart: 0.1 % ID
  % ID Kidney: 4.6 % ID
  % ID Liver: 4.0 % ID
  % ID Lung: 0.3 % ID
  % ID Muscle: 5.1 % ID
  % ID Urine: 37.0 % ID
[5]; 4 h
  % ID Blood: 0.6 % ID
  % ID GI Tract: 20.7 % ID
  % ID Heart: 0.04 % ID
  % ID Kidney: 3.4 % ID
  % ID Liver: 3.0 % ID
  % ID Lung: 0.3 % ID
  % ID Muscle: 2.9 % ID
  % ID Urine: 42.0 % ID

## Ac-NQG-Pn44 [^99mTc-Cmpd 16]
[1]
  % intact at 120 mins: >90%
[2]
  % specific uptake: 12.4%
  % retained (no thrombin): 0.1%
  % retained (with thrombin): 12.5%
[2]; in vitro clot
  in vitro clot uptake (in words): significant reduction in uptake
[3]
  % intact at 120 mins: >90%
[4]; Fresh Clots
  Clot/blood: 3
  Clot/heart: 8
  Clot/liver: 0.8
  Clot/lung: 3
[4]; [7]
  % id/g (clot): 0.3 ± 0.1 % id/g
  Rel. Conc. (cpm/g of clot by dose/g animal): 1.0 ± 0.2

— US7049289B1, “Labelled glutamine and lysine analogues” (Amersham PLC, priority 1998, dated 2006)
